Series [1] addresses recombinant α345 miniprotomer (human) (UniProt Q01955). The series is described as follows: atomic force microscopy; miniprotomer 1 to 2 μg/ml deposited on mica from buffer with chloride, imaged dry, AC tapping mode in air.
Series [2] concerns the molecule itself. The series is described as follows: SEC; NC1 monomers alone or in equimolar mixture, 2 mg/ml in 25-mM Tris acetic acid buffer pH 7.5, NaCl added (150 mM), 24 h at 37 °C; Superdex 200 Increase 10/300GL in TBS; hexamer peak blotted with α3, α4 and α5 NC1-specific mAbs. A general note: SEC sorts molecules by how far they enter the pores of the column.

The stoichiometry N is the number of molecules, sites or subunits per partner or assembly. “recombinant α345 miniprotomer (from UniProt Q01955 29-1670; P53420 39-1690; P29400 27-1685) (complex)”: the stoichiometry N in series [1] was determined as 2.

B1: recombinant human collagen IV α5 NC1 monomer (domain or fragment, UniProt P29400 1461-1685, looked up)
chain: GFLITRHSQTTDAPQCPQGTLQVYEGFSLLYVQGNKRAHGQDLGTAGSCLRRFSTMPFMFCNINNVCNFASRNDYSYWLSTPEPMPMSMQPLKGQSIQPFISRCAVCEAPAVVIAVHSQTIQIPHCPQGWDSLWIGYSFMMHTSAGAEGSGQALASPGSCLEEFRSAPFIECHGRGTCNYYANSYSFWLATVDVSDMFSKPQSETLKAGDLRTRISRCQVCMKRT
notes: collagen IV α5 chain, NC1 domain, human; amplified by PCR from a human kidney cDNA library; Secreted by means of the BM-40 signal peptide of the vector (derivative of pRc-CMV)
For the molecule B1, the “stoichiometry N” value in series [2] turned out to be 6.

The record behind these values is paper PMC8099640, “Collagen IV^α345 dysfunction in glomerular basement membrane diseases. III. A functional framework for α345 hexamer assembly” (The Journal of Biological Chemistry, 2021).
